Source: US20030027358A1

Target: MHC Class I heavy chains (HLA-A, B and C molecules) on CB23, HSB2, MP-1, Jurkat, primary T cells, primary B cells and primary NK cells
Experiment: flow cytometry competition; W6/32 at 0, 2, 5 or 10 µg in 100 µL, competitor 5 µg P3G2/Fc

W6/32 (ATCC HB-95), an antibody against MHC Class I heavy chains
amount of W6/32 at which P3G2 binding was totally blocked: 5 µg
